Data as given in patent publication US20140099313A1 (published 2014).

What was measured:
[1] = biological target: T1, human IL-13 variant (R130Q of SEQ ID NO 1) (human, UniProt P35225 35-146); assay: SPR (Biacore), captured mAb
T1 construct: Recombinant purified protein (Peprotech for immunisation); also called h IL-13v; hIL-13v
Procedure: The BIACORE assay (Biacore, Inc, Piscataway, N.J.) determines the affinity of antibodies with kinetic measurements of on-, off-rate constants. […] All chemicals were obtained from Biacore® AB (Uppsala, Sweden) or otherwise from a different source as described in the text. Approximately 5000 RU of goat anti-mouse IgG, (Fcγ), fragment specific polyclonal antibody (Pierce Biotechnology Inc, Rockford, Ill.) diluted in 10 mM sodium acetate (pH 4.5) was directly immobilized across a CM5 research grade biosensor chip using a standard amine coupling kit according to manufacturer's instructions and procedures at 25 μg/ml. […] Unmodified carboxymethyl dextran without goat anti-mouse IgG in flow cell 1 and 3 was used as the reference surface. For kinetic analysis, rate equations derived from the 1:1 Langmuir binding model were fitted simultaneously to association and dissociation phases of all eight injections (using global fit analysis) with the use of Biaevaluation 4.0.1 software. […] The association and dissociation rate constants, kₒₙ (unit M⁻¹s⁻¹) and koff (unit s⁻¹) were determined under a continuous flow rate of 25 μl/min Rate constants were derived by making kinetic binding measurements at ten different antigen concentrations ranging from 10-200 nM. […] Binding is recorded as a function of time and kinetic rate constants are calculated.

[2] = biological target: T2, human IL-13 wild type (human, UniProt P35225 35-146); assay: competition: human IL-13 to human IL-13Rα2, cell surface-based and ELISA-based RBA
T2 construct: also called h IL-13; hIL-13 wt
T2 sequence (P35225 other isoform, or with tags, fused parts or gaps limits assumed): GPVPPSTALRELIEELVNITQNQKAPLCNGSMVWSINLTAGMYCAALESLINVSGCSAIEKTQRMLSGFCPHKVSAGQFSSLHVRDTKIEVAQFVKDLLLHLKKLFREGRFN

T1 sequence (P35225 35-146 limits assumed, stated change not applied): as the sequence (P35225 other isoform, or with tags, fused parts or gaps limits assumed) above, with R110Q counted along it

kon [1] [M⁻¹ s⁻¹]	IC50 [2] [nM]	Binder
106000		1B6 (antibody, V domains shown, Murine monoclonal, IgG1κ) VH: QVQLKESGPGLVAPSQSLSITCTVSGFSLTGYGVNWVRQPPGKGLEWLGMIWGDERIDYNSALKSRLSITKDNSKSQVFLKMNSLQTDDTGRYFCARDGYFPYAMDYWGQGTSVTVSS VL: NIVLTQSPASLAVSLGQRATISCRASETVDSYGKSYLHWYQQKPGQPPKLLIYLASNLESGVPARFSGSGSRTDFTLIIDPVEADDAATYYCQQNNEGPRTFGGGTKLEIKR
	1 to 3	13C5.5 (antibody, human IgG1, V domains shown, Humanized; also called humanized 13C5) VH: EVTLRESGPGLVKPTQTLTLTCTLYGFSLSTSDMGVDWIRQPPGKGLEWLAHIWWDDVKRYNPALKSRLTISKDTSKNQVVLKLTSVDPVDTATYYCARTVSSGYIYYAMDYWGQGTLVTVSS VL: DIQMTQSPSSLSASVGDRVTISCRASQDIRNYLNWYQQKPGKAPKLLIFYTSKLHSGVPSRFSGSGSGTDYTLTISSLQPEDIATYYCQQGNTLPLTFGGGTKVEIK
